# Numbering of substitutions follows the chain as printed. Names and notes keep the numbering of the source.
# B1: Il-DyP4 (Irpex lacteus; W410F) (protein)
# chain: SAGNDSLPFENIQGDILVGMKKDKEKFVFFHINNATAFKSVLKTYAPANITSVATIIGPVANQPLAFVNLAFSHAGFGALNVTDDLQDTAFSDGQFKDSPNLGDDTSTWEEAFKGTNVDGVFLIGSNDESITAQYRDDLNAKFGDAWTIVYDLDSAARPGNEKGHEHFGYLDGISNPTIPGFGTPHPGQAVVDPGIIFTGRSKDPVMNRPSWALDGSFLVFRKLKQLVPEFNKYVLDNALQNQAGNLTVEEGAELLGSRMFGRWKSGAPIDLSPDFDDPALGNDIERNNNFNYSHPGSDLATDQTRCPFTAHIRKTNPRDLEGQGLFGDTFHAIRAGTPYGPEVTDYEASSNTTTIDRGLAFVEYQSVIGNGFRFQQQAFANNPRFPFSKGPSIQLGLDPVIGQGSPRETFGLDPRNASESFTVPQVIISNGGEYFFSPSITAIVEKFAA
# notes: monomer, model residues 6-450
# B2: Il-DyP4 (Irpex lacteus; W294F) (protein)
# chain: B1 chain with W264F, F380W
# notes: monomer, model residues 6-450
# B3: Il-DyP4 (Irpex lacteus; W139F) (protein)
# chain: B1 chain with W109F, F380W
# notes: monomer, model residues 6-450
# B4: Il-DyP4 (Irpex lacteus) (protein)
# chain: B1 chain with F380W
# notes: monomer, model residues 6-450
# B5: Il-DyP4 (Irpex lacteus; W294R) (protein)
# chain: B1 chain with W264R, F380W
# notes: monomer, model residues 6-450
# B6: Il-DyP4 (Irpex lacteus; W294Y) (protein)
# chain: B1 chain with W264Y, F380W
# notes: monomer, model residues 6-450
# B7: Il-DyP4 (Irpex lacteus; W294H) (protein)
# chain: B1 chain with W264H, F380W
# notes: monomer, model residues 6-450
# B8: Il-DyP4 (Irpex lacteus; W410Y) (protein)
# chain: B1 chain with F380Y
# notes: monomer, model residues 6-450
# Columns and labels:
# Experiment in all cases: purified protein
# Assay type in all cases: biochemical, Irpex lacteus
# Details in all cases: 0.1 mM H2O2, 10 mM sodium tartrate pH 3.5, 3.3 nM enzyme
# purified protein [1] = substrate: CCn1c(=NN=c2sc3cc(S(=O)(=O)O)ccc3n2CC)sc2cc(S(=O)(=O)O)ccc21
# purified protein [2] = substrate: COc1cccc(OC)c1O
# purified protein [3] = substrate: Nc1c(S(=O)(=O)O)cc(Nc2cccc(S(=O)(=O)CCOS(=O)(=O)O)c2)c2c1C(=O)c1ccccc1C2=O
Protein,Km (purified protein [1]) [µM],kcat (purified protein [1]) [s ^-1],kcat/Km (purified protein [1]),Km (purified protein [2]) [µM],kcat (purified protein [2]) [s ^-1],kcat/Km (purified protein [2]),Km (purified protein [3]) [µM],kcat (purified protein [3]) [s ^-1],kcat/Km (purified protein [3])
B1,752.00 ± 207.21,316.16 ± 61.61,(4.20 ± 2.90) × 10^5 M^-1 s^-1,,,,,,
B2,71.87 ± 20.86,384.85 ± 42.27,(5.35 ± 2.02) × 10^6 M^-1 s^-1,229.05 ± 30.79,71.21 ± 2.60,(3.11 ± 0.84) × 10^5 M^-1 s^-1,27.60 ± 7.70,46.11 ± 5.91,(1.67 ± 0.76) × 10^6 M^-1 s^-1
B3,,,,172.71 ± 38.31,69.65 ± 3.46,(4.03 ± 0.90) × 10^5 M^-1 s^-1,,,
B4,67.29 ± 13.05,790 ± 56.06,(1.17 ± 0.43) × 10^7 M^-1 s^-1,8.98 ± 1.02,58.99 ± 0.45,(6.57 ± 0.44) × 10^6 M^-1 s^-1,139.87 ± 42.85,187.90 ± 37.00,(1.34 ± 0.86) × 10^6 M^-1 s^-1
B5,19.47 ± 4.41,52.78 ± 2.86,(2.71 ± 0.65) × 10^6 M^-1 s^-1,1082.00 ± 283.00,18.28 ± 2.30,(1.69 ± 0.81) × 10^4 M^-1 s^-1,,,
B6,,,,953.00 ± 102.70,56.25 ± 2.81,(5.90 ± 2.74) × 10^4 M^-1 s^-1,,,
B7,,,,42.64 ± 6.32,54.29 ± 1.08,(1.27 ± 0.17) × 10^6 M^-1 s^-1,,,
B8,275.07 ± 77.79,88.38 ± 15.66,(3.21 ± 2.01) × 10^5 M^-1 s^-1,,,,,,

# Source: article PMC8165797
